By stoichiometry N is commonly meant the number of molecules, sites or subunits per partner or assembly.

The labels stand for the following.
B1: SUMO-AtIBR5-p (N-terminal 6x His-SUMO tag fused to aa 48-257 of AtIBR5, only the DSP_plant_IBR5-like domain) (domain or fragment, Arabidopsis thaliana, UniProt Q84JU4 48-257, looked up)
chain: AFPSEILPEFLYLGSYDNASRSELLKTQGISRVLNTVPMCQNLYRNSFTYHGLDNEKVLQFDDAIKFLDQCEKDKARVLVHCMSGKSRSPAVVVAYLMKRKGWRLAESHQWVKQRRPSTDISPEFYQQLQEFEQGIFGSEMMSAMNINDAPTFGFGFPKIDNQAQAPVFNNAPTSSIFSSPASSIPPQEFTFGATPPKPTTGGDIAMDGS
notes: One glycine residue stands as a linker between the 6x His-SUMO tag and the AtIBR5 stretch; also called N-terminally truncated AtIBR5; source: E. coli BL21 HiControl, purified (Ni-NTA, SEC); not shown: His6, N-terminal, kept; SUMO, N-terminal, kept
B2: SUMO-AtIBR5 (N-terminal 6X His-tagged SUMO fused to the 257-amino acid-long Arabidopsis thaliana indole-3-butyric acid response 5) (enzyme, UniProt Q84JU4 1-257, looked up)
chain: MRKRERENPCSICGHYHKYEEGEVCGVCGHCMPVSSDTVAPQQVHVSAFPSEILPEFLYLGSYDNASRSELLKTQGISRVLNTVPMCQNLYRNSFTYHGLDNEKVLQFDDAIKFLDQCEKDKARVLVHCMSGKSRSPAVVVAYLMKRKGWRLAESHQWVKQRRPSTDISPEFYQQLQEFEQGIFGSEMMSAMNINDAPTFGFGFPKIDNQAQAPVFNNAPTSSIFSSPASSIPPQEFTFGATPPKPTTGGDIAMDGS
notes: AtIBR5, dual-specificity phosphatase, Arabidopsis thaliana, UniProt Q84JU4, AT2G04550; One glycine residue (codon GGU) stands as a linker between the 6X His-SUMO tag and AtIBR5; Cloned with the Expresso T7 SUMO system (pETite N-His SUMO Kan vector); Expected monomer about 42 kDa; also called SUMO-AtIBR5 wild-type protein; source: E. coli BL21 HiControl, purified (Ni-NTA, SEC); not shown: His6, …
B3: SUMO-AtIBR5-q (quadruple mutant of SUMO-AtIBR5, all four conserved cysteine residues substituted with glycine) (enzyme, Arabidopsis thaliana, UniProt Q84JU4 1-257, looked up)
chain: B2 chain with C10G, C13G, C25G, C28G
notes: One glycine residue stands as a linker between the 6x His-SUMO tag and AtIBR5; also called quadruple AtIBR5 mutant; C10G C13G C25G C28G; source: E. coli BL21 HiControl, purified (Ni-NTA, SEC); not shown: His6, N-terminal, kept; SUMO, N-terminal, kept

Changes are numbered by the printed parent chain. In names and notes the source's numbering stands. Several values for one entry are separate records, joined by “and”; a condition that tells them apart may be missing. Equal values may be shown once.

This data set deals with the molecule itself. The data set can be described thus: SEC; FPLC on HiPrep 26/60 Sephacryl S-300 HR after Ni-NTA purification; 100 mM Tris-HCl pH 8.0, 150 mM NaCl; sizes estimated from a standard curve with the Bio-Rad Gel Filtration Standard; His-SUMO tag kept.
Take B1: the “stoichiometry N” value is 2 and 4. The result for B2 reads 4 and 2; that for B3, 2 and 4.

Source of the values: paper PMC12525521, “N-Terminal Metal-Binding Domain of Arabidopsis IBR5 Is Important for Its in Planta Functions” (International Journal of Molecular Sciences, 2025).
